For assay [1], the target named is RAFT1 (Rapamycin And FKBP12 Target 1), 245 kDa protein (rat) (UniProt P42346). Put plainly: DSS crosslinking in heparin column eluate with 1 uM rapamycin plus 1 uM FK506 (small-molecule competitor).
In assay [2] the target is RAFT2 (Rapamycin And FKBP12 Target 2), 35 kDa protein. Described as above.
In assay [3] the target is FKBP12 / RAFT1 (245 kDa) and RAFT2 (35 kDa) (Rattus norvegicus, UniProt P42346+Q62658). Kind of assay: Crosslinking assay: 32P-FKBP12 with heparin column eluate of rat brain cytosol.

Entries after “also recorded” stand apart in the source; their conditions may differ.

Regarding “32P-radiolabeled FKBP12 probe (recombinant rat FKBP12 with two consensus PKA sites added at the N-terminus, cleaved from GST with thrombin) (from UniProt Q62658 1-108)”, the reduction of crosslinked band intensity in assay [1] and in assay [2] was 50% in each case.

Regarding `C=CC[C@@H]1/C=C(\C)C[C@H](C)C[C@H](OC)[C@H]2O[C@@](O)(C(=O)C(=O)N3CCCC[C@H]3C(=O)O[C@H](/C(C)=C/[C@@H]3CC[C@@H](O)[C@H](OC)C3)[C@H](C)[C@@H](O)CC1=O)[C@H](C)C[C@@H]2OC` [FK506, reference compound], the “reduction of the intensities of the crosslinked bands” value in assay [3] (equal concentrations (1 μM) of rapamycin and FK506) was “approximately 50%”.

B1: unlabeled FKBP12: immunophilin receptor protein for FK506 and rapamycin, used unlabeled in excess (1 μM) as competitor (protein)
chain: GVQVETISSGDGRTFPKRGQTCVVHYTGMLEDGKKFDSSRDRNKPFKFTLGKQEVIRGWEEGVAQMSVGQRAKLIISPDYAYGATGHPGIIPPHATLVFDVELLKLE
For B1, the “antagonism of rapamycin-induced crosslinking of 32P-FKBP12 to the target proteins” value in assay [3] (competitor at 1 μM, all rapamycin concentrations tested) is reported as “prevent the rapamycin-dependent association; also recorded: completely suppressed the appearance of the crosslinked bands”.

Values taken from patent US6492106B1, “Mammalian proteins that bind to FKBP12 in a rapamycin-dependent fashion” (The Johns Hopkins University, priority 1994, dated 2002).
